Columns and labels:
[1] = target: N276Q/N463Q trimer (PT backbone) (HIV-1 16055 (Indian subtype C)); experiment: BLI, trimer on anti-His sensor, Fab analyte
[2] = target: +N332 N276Q/N360Q/N463Q/N301Q (HIV-1 16055 (Indian subtype C)); experiment: BLI, trimer on anti-His sensor, Fab analyte
[3] = target: +N332 N301Q (HIV-1 16055 (Indian subtype C)); experiment: BLI, trimer on anti-His sensor, Fab analyte
[4] = target: +N332 N276Q/N360Q/N463Q (HIV-1 16055 (Indian subtype C)); experiment: BLI, trimer on anti-His sensor, Fab analyte
[5] = target: N276Q/N463Q trimer (PT backbone) (HIV-1 16055 (Indian subtype C)); experiment: BLI (Octet): trimer on anti-His sensor, Fab in solution, 1:1 global fit
[6] = target: +N332 PT (HIV-1 16055 (Indian subtype C)); experiment: as above
[7] = target: 16055 NFL TD CC (T569G) (HIV-1 16055 (Indian subtype C)); experiment: as above
[8] = target: +N332 N276Q/N360Q/N463Q/N301Q (HIV-1 16055 (Indian subtype C)); experiment: as above
[9] = target: +N332 N301Q (HIV-1 16055 (Indian subtype C)); experiment: as above
[10] = target: +N332 N276Q/N360Q/N463Q (HIV-1 16055 (Indian subtype C)); experiment: as above
[11] = target: +N332 PT (HIV-1 16055 (Indian subtype C)); experiment: negative-stain EM, 2D classes of trimer-Fab complexes
[12] = target: +N332 N276Q/N360Q/N463Q/N301Q (HIV-1 16055 (Indian subtype C)); experiment: as above

VRC03 Fab showed a fold more efficient recognition vs PT [1] of 30 fold, a fold difference in affinity vs +N332 PT [2] of 8 fold and a fold lower binding vs +N332 PT [3] of 2 fold. It also gave a fold difference in affinity vs +N332 PT [4] of 10 fold, a Kd [5] of 8.6 nM and a koff [5] of 0.000505 s⁻¹. It also gave a kon [5] of 58700 M⁻¹ s⁻¹, a Kd [6] of 131 nM and a koff [6] of 0.00204 s⁻¹. The kon [6] was 15600 M⁻¹ s⁻¹, the Kd [7] was 241 nM and the koff [7] was 0.0026 s⁻¹. The kon [7] was 10800 M⁻¹ s⁻¹, the Kd [8] was 16.4 nM and the koff [8] was 0.00124 s⁻¹. The kon [8] was 75400 M⁻¹ s⁻¹, the Kd [9] was 270 nM and the koff [9] was 0.0037 s⁻¹. The kon [9] was 13700 M⁻¹ s⁻¹, the Kd [10] was 12.9 nM and the koff [10] was 0.000739 s⁻¹. It also gave a kon [10] of 57100 M⁻¹ s⁻¹, a share of trimers unliganded [11] of 19% and a share of trimers with 1 Fab [11] of 20%. The share of trimers with 2 Fabs [11] was 34%, the share of trimers with 3 Fabs [11] was 27% and the share of trimers unliganded [12] was 22%. The share of trimers with 1 Fab [12] was 23%, the share of trimers with 2 Fabs [12] was 30% and the share of trimers with 3 Fabs [12] was 25%.

Reference: patent US20190135872A1
